Biological target: the molecule itself
Assay: SEC-MALS

| Protein | stoichiometry N |
| --- | --- |
| Get3 purified under reducing conditions (Get3red) (natural protein, yeast) MDLTVEPNLHSLITSTTHKWIFVGGKGGVGKTTSSCSIAIQMALSQPNKQFLLISTDPAHNLSDAFGEKFGKDARKVTGMNNLSCMEIDPSAALKDMNDMAVSRANNNGSDGQGDDLGSLLQGGALADLTGSIPGIDEALSFMEVMKHIKRQEQGEGETFDTVIFDTAPTGHTLRFLQLPNTLSKLLEKFGEITNKLGPMLNSFMGAGNVDISGKLNELKANVETIRQQFTDPDLTTFVCVCISEFLSLYETERLIQELISYDMDVNSIIVNQLLFAENDQEHNCKRCQARWKMQKKYLDQIDELYEDFHVVKMPLCAGEIRGLNNLTKFSQFLNKEYNPITDGKVIYELEDKE | 2 |
| Get3 oxidised with 2 mM H2O2 / 50 µM Cu2+ (Get3ox) (natural protein, yeast, intramolecular disulfide bonds connecting the next-neighbor conserved cysteines (C242/C244 and C285/C288)) MDLTVEPNLHSLITSTTHKWIFVGGKGGVGKTTSSCSIAIQMALSQPNKQFLLISTDPAHNLSDAFGEKFGKDARKVTGMNNLSCMEIDPSAALKDMNDMAVSRANNNGSDGQGDDLGSLLQGGALADLTGSIPGIDEALSFMEVMKHIKRQEQGEGETFDTVIFDTAPTGHTLRFLQLPNTLSKLLEKFGEITNKLGPMLNSFMGAGNVDISGKLNELKANVETIRQQFTDPDLTTFVCVCISEFLSLYETERLIQELISYDMDVNSIIVNQLLFAENDQEHNCKRCQARWKMQKKYLDQIDELYEDFHVVKMPLCAGEIRGLNNLTKFSQFLNKEYNPITDGKVIYELEDKE | 4 |

From article PMC4204210 (Molecular cell, 2014)
